Assay [1] has as its target cynomolgus 4-1BB (cynomolgus). The assay can be described thus: SPR. For orientation: SPR reads the build-up and loss of mass on a sensor chip optically.
The target of assay [2] is CD40 (binding assays of Example 4; species and form not stated) (UniProt P25942 21-193, limits assumed). The assay can be described thus: antigen binding, method not stated.
Assay [3] deals with T1, human CD40 on cells (HEK293 transfectants, HEK-Blue CD40 reporter cells, human B cells, moDC, PBMC) (human, UniProt P25942 21-277). The assay can be described thus: cell-based or functional assay.
The target in assay [4] is T1, human CD40 on cells (HEK293 …). The assay can be described thus: cell-based or functional assay. The source holds these as a separate data set.
For assay [5], the target named is T2, MSLN (Table 10-1; species and form not stated).
T2 construct: also called mesothelin
The assay can be described thus: antigen binding, method not stated.

From patent publication US20170342169A1 (published 2017) come the findings set out here.

Chain of CD40 (binding assays of Example 4; species and form not stated) (P25942 21-193 limits assumed): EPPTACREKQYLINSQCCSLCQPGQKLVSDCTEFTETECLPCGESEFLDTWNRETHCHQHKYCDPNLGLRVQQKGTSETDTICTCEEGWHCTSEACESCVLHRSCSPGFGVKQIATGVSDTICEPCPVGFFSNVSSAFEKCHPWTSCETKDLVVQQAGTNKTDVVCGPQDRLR
T1 sequence (P25942 21-277 limits assumed): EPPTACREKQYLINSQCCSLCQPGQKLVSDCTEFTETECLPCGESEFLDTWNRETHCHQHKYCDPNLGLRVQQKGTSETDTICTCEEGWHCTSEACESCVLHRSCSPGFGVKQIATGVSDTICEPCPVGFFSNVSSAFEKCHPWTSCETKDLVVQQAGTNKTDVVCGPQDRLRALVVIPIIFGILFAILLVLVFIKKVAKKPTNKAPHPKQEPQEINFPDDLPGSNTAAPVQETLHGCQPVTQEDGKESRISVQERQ
T2 sequence (Q13421 37-606): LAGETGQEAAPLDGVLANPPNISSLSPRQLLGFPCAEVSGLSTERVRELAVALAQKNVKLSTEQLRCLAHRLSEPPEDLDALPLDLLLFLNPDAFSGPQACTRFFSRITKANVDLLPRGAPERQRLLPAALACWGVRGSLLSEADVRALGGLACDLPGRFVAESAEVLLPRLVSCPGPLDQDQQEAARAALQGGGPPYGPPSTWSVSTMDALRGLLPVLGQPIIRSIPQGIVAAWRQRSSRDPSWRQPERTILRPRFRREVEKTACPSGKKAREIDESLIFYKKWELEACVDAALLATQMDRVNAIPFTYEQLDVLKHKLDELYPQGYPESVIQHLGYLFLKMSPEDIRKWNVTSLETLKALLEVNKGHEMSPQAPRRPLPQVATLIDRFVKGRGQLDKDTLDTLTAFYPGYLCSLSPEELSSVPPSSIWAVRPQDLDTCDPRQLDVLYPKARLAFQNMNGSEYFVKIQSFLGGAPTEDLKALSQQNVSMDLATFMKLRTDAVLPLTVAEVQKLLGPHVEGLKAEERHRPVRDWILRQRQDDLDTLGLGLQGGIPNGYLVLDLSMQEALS

B1: TABBY107-rIgG1 (antibody, V domains shown)
VH: QVKLVQSGAALVKPGASVKMSCKASDYTFNDYWVSWVKQRHGESLEWIGEIYPNSGATNFNGKFRGKATLTVDNPTSTAYMELSRLTSEDSAIYYCTREYTRDWFAYWGQGTLVTVSS
VL: DVVLTQTPSILSATIGQSVSISCRSSQSLLDSDGNTYLYWFLQRPGQSPQRLIYLVSNLGSGVPNRFSGSGSGTDFTLKISGVEAEDLGIYYCMQPTHAPYTFGAGTKLELK
notes: Rat IgG1, kappa
Turning to B1, in assay [1], binding was put at a Kd of 0.36 nM, the koff came out at 0.00013 s⁻¹ and the kon stood at 350000 M⁻¹ s⁻¹.

B2: B39 (bispecific antibody, IgG2)
chain: EVQLQESGPGLVKPSETLSLTCTVSGYSITSNYYWNWIRQPPGKGLEWMGYIRYDGSNNYNPSLKNRVTISRDTSKNQFSLKLSSVTAADTAVYYCARLDYWGQGTTVTVSSDLSGGGGSGGGGSGGGGSGGGGSTGDAVMTQTPLSLSVTPGQPASISCRSSQSLENTNGNTFLNWYLQKPGQSPQLLIYRVSNRFSGVPDRFSGSGSGTDFTLKISRVEAEDVGVYYCLQVTHVPFTFGQGTKLEIKRVERKSSVECPPCPAPPVAGPSVFLFPPKPKDTLMISRTPEVTCVVVDVSHEDPEVQFNWYVDGVEVHNAKTKPREEQFNSTFRVVSVLTVVHQDWLNGKEYKCKVSNKGLPAPIEKTISKTKGQPREPQVYTLPPSREEMTKNQVSLTCLVKGFYPSDIAVEWESNGQPENNYKTTPPMLDSDGSFFLYSKLTVDKSRWQQGNVFSCSVMHEALHNHYTQKSLSLSPGKVDGASSPVNVSSPSVQDIEVQLVQSGAEVKKPGASVKVSCKASGDTFKRYYVHWVRQAPGQGLEWMGIINPSGVSTTYAQKFQGRVTMTRDTSTSTVYMELSSLRSEDTAVYYCAEVRGSGFNYFGMDVWGQGTLVTVSSDLSGGGGSGGGGSGGGGSGGGGSTGSYELTQPPSVSVSPGQTASITCSGDKLGDKYASWYQQKPGQSPVLVIYQDNRRPSGIPERFSGSNSGNTATLTISGTQAMDEADYYCQAWDSDTYVFGTGTKVTVLGQ
notes: huAb9-5 (VH-VL) N-terminal, HuAM15 (VH-VL) C-terminal, huIgG2
Molecule B2 yielded an EC50 in assay [2] of 0.5 µg/mL.

B3: CF1 (bispecific antibody, human IgG1, lambda)
heavy: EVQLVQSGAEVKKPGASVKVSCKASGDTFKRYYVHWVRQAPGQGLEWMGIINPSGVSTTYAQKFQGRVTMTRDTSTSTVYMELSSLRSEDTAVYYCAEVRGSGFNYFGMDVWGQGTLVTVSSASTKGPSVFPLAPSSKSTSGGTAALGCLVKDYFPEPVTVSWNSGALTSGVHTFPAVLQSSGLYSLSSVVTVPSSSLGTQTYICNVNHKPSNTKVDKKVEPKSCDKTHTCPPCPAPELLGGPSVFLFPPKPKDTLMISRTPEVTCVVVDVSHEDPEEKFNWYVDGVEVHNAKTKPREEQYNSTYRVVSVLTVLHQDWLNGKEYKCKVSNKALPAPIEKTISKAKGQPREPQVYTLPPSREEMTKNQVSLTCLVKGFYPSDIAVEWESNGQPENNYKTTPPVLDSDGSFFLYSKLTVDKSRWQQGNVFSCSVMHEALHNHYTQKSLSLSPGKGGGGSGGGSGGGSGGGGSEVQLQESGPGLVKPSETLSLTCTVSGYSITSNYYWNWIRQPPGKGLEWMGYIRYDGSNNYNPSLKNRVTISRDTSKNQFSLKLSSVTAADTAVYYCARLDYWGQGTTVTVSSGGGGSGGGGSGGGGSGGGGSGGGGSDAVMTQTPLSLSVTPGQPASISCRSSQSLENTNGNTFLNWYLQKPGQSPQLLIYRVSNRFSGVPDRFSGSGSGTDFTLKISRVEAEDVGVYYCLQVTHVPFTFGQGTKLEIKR
light: SYELTQPPSVSVSPGQTASITCSGDKLGDKYASWYQQKPGQSPVLVIYQDNRRPSGIPERFSGSNSGNTATLTISGTQAMDEADYYCQAWDSDTYVFGTGTKVTVLGQPKAAPSVTLFPPSSEELQANKATLVCLISDFYPGAVTVAWKADSSPVKAGVETTTPSKQSNNKYAASSYLSLTPEQWKSHRSYSCQVTHEGSTVEKTVAPTECS
In the case of B3, in assay [3], the “Max. IL-12p70, dendritic cells” value was 100 pg/mL.

B4: CF3 (bispecific antibody, human IgG1, lambda)
heavy: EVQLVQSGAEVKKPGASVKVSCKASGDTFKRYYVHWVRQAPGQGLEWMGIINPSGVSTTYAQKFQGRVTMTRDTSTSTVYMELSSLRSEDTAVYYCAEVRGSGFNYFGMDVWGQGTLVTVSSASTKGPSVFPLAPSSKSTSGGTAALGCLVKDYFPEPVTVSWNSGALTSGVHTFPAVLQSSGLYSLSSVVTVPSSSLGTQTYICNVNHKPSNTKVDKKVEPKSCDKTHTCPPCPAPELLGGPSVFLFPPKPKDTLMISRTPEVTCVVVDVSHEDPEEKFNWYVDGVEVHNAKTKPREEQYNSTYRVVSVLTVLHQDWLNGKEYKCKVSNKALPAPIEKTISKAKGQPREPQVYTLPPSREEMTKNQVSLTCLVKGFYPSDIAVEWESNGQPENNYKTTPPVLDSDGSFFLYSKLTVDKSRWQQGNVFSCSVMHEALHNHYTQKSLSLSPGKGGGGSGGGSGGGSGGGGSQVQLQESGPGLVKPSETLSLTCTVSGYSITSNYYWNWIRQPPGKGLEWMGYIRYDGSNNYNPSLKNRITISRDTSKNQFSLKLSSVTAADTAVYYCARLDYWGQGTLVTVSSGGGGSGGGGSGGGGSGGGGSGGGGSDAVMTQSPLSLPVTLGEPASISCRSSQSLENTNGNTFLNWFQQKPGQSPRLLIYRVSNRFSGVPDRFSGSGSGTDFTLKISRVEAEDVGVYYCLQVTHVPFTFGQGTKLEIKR
light: SYELTQPPSVSVSPGQTASITCSGDKLGDKYASWYQQKPGQSPVLVIYQDNRRPSGIPERFSGSNSGNTATLTISGTQAMDEADYYCQAWDSDTYVFGTGTKVTVLGQPKAAPSVTLFPPSSEELQANKATLVCLISDFYPGAVTVAWKADSSPVKAGVETTTPSKQSNNKYAASSYLSLTPEQWKSHRSYSCQVTHEGSTVEKTVAPTECS
B4: the “Max. IL-12p70, dendritic cells” value in assay [3] came to 75 pg/mL.

B5: huAb8-1 (antibody, human IgG1, V domains shown)
VH: EVQLVQSGAEVKKPGSSVKVSCKASGYTFTDYYINWVRQAPGQGLEWIGWIFPGSGSVYCNEQFKGRATLTVDRSTSTAYMELSSLRSEDTAVYFCASSLGKFAYWGQGTLVTVSS
VL: DIQMTQSPSSLSASVGDRVTITCKASQSVVTAVAWYQQKPGKSPKLLIYSASNRYTGVPSRFSGSGSGTDFTLTISSLQPEDFATYFCQQYSSYPYTFGGGTKVEIK
For B5, the response in assay [2] was half-maximal at 0.4 µg/mL (EC50). In assay [4], the “Maximal activation (OD655)” value stood at 0.45 OD655.

B6: TABBY106-rIgG1 (antibody, V domains shown)
VH: QVQLQQSGAELAKPGTSVKLSCKASGYTFTSYYIYWVKQRPGQGLEWIGNIWPGNGGTFYGEKFMGKATFTADTSSSTAYMLLGSLTPEDSAYYFCARRPDYSGDDYFDYWGQGVLVTVSS
VL: QVVLTQPKSVSTSLKSTVKLSCKLNSGNIGSYYVHWYQQHAGRSPTTMIYRDDKRPDGVPDRFSGSIDSSSNSAFLTINNVQTEDDAIYFCHSYDSTITPVFGGGTKLTVL
notes: Rat IgG1, lambda
For the molecule B6, in assay [1], binding was characterised by a dissociation constant (Kd) of 18 nM, the koff worked out at 0.022 s⁻¹ and the kon turned out to be 1.2e+06 M⁻¹ s⁻¹.

B7: LB-1 (bispecific antibody, mouse IgG1)
chain: EVQLVESGGGLVQPGRSLKLSCAASGFTFSNYDMAWVRQAPTKGLEWVASISPSGGRTYYRDSVKGRFTVSRDNAKSTLYLQMDSLRSEDTATYYCARHDGSYFDYWGQGVMVTVSSDLSGGGGSGGGGSGGGGSGGGGSTGDTVLTQSPALAVSPGERVTISCRASESVSTLMHWYQQKPGQQPKLLIYLASHLESGVPARFSGSGSGTDFTLTIDPVEADDTATYYCQESWNDPWTFGGGTKLELKRLEVPRDSGSKPCICTVPEVSSVFIFPPKPKDVLTITLTPKVTCVVVDISKDDPEVQFSWFVDDVEVHTAQTQPREEQFNSTFRSVSELPIMHQDWLNGKEFKCRVNSAAFPAPIEKTISKTKGRPKAPQVYTIPPPKEQMAKDKVSLTCMITDFFPEDITVEWQWNGQPAENYKNTQPIMDTDGSYFVYSKLNVQKSNWEAGNTFTCSVLHEGLHNHHTEKSLSHSPGKVDGASSPVNVSSPSVQDIQVQLVQSGAEVKKPGASVKVSCKASGYTFTGNYINWVRQAPGQGLEWMGIINPTKGWTLYAQKFQGRVTMTRDTSISTAYMELSSLRSEDTAVYYCARWHHGTWIFDYWGQGTLVTVSSDLSGGGGSGGGGSGGGGSGGGGSTGDIVLTQPPSVSGAPGQRVTISCSGSSSNIGSNYVSWYQQLPGTAPKLLIYNDNQRPSGVPDRFSGSKSGTSASLAITGLQSEDEADYYCSTYDRRTFSVFGGGTKLTVLG
notes: 1C10 scFv (VH-VL), murine IgG1 hinge-CH2-CH3, MOR06626 scFv (VH-VL)
As to B7, the EC50 in assay [5] came out at 1.39 µg/mL.

B8: anti-MSLN antibody (MOR06626 mIgG1) (antibody, V domains shown)
VH: QVQLVQSGAEVKKPGASVKVSCKASGYTFTGNYINWVRQAPGQGLEWMGIINPTKGWTLYAQKFQGRVTMTRDTSISTAYMELSSLRSEDTAVYYCARWHHGTWIFDYWGQGTLVTVSS
VL: DIVLTQPPSVSGAPGQRVTISCSGSSSNIGSNYVSWYQQLPGTAPKLLIYNDNQRPSGVPDRFSGSKSGTSASLAITGLQSEDEADYYCSTYDRRTFSVFGGGTKLTVLG
On to B8, for which the EC50 in assay [5] is 0.06 µg/mL.

B9: huAb9-5 (antibody, human IgG1, kappa)
heavy: not shown
light: DAVMTQTPLSLSVTPGQPASISCRSSQSLENTNGNTFLNWYLQKPGQSPQLLIYRVSNRFSGVPDRFSGSGSGTDFTLKISRVEAEDVGVYYCLQVTHVPFTFGQGTKLEIKRTVAAPSVFIFPPSDEQLKSGTASVVCLLNNFYPREAKVQWKVDNALQSGNSQESVTEQDSKDSTYSLSSTLTLSKADYEKHKVYACEVTHQGLSSPVTKSFNRGEC
notes: human IgG1, kappa
In the case of B9, in assay [2], the response was half-maximal at 0.2 µg/mL (EC50). Further, the “Maximal activation (OD655)” value in assay [4] is 0.67 OD655.

One may read the Kd as the free concentration of one partner at which half of the binding sites on the other are occupied at equilibrium, for simple one-to-one binding. A word on the koff: it is the rate constant with which the complex falls apart. By kon is commonly meant a measure of how fast the partners come together. By EC50 is commonly meant the midpoint of the concentration-response curve. A low value points to higher potency in that assay.
